{"source": "patent US20090087428A1", "target": "GST-huFcγRIIA(R131) (human) [GST: P08515]", "experiment": "ELISA, plate-coated GST fusion (FIG. 8)"}
{"binder": "Antibody 5A6.2.1 (anti-human FcγRIIB monoclonal antibody) (antibody) VH: EVKLEESGGGLVQPGGSMKLSCVASGFTFSDAWMDWVRQSPERGLEWVAEIRSKPNNHATYYAESVKGRFTISRDDSKSSVYLQMTSLRPEDTGIYYCTHFDYWGQGTTLTVSSAKTTGPSVFPLAPSSKSTSGGTAALGCLVKDYFPEPVTVSWNSGALTSGVHTFPAVLQSSGLYSLSSVVTVPSSSLGTQTYICNVNHKPSNTKVDKKVEPKSCDKTHT VL: DIQMTQSPSSLSASLGERVSLTCRASQEISGYLSWFQQKPDGTIKRLIYAASALDSGVPKRFSGSWSGSDYSLTISSLESEDFADYYCLQYVSYPLTFGAGTKLELKRTVAAPSVFIFPPSDEQLKSGTASVVCLLNNFYPREAKVQWKVDNALQSGNSQESVTEQDSKDSTYSLSSTLTLSKADYEKHKVYACEVTHQGLSSPVTKSFNRGEC", "values": [{"measurement": "EC50", "result": 2.5, "unit": "µg/mL"}]}
